According to the RNAGym collection of RNA variant scans (doi:10.1073/pnas.2313332121):
Fewer inactive variants are shown than the library holds.

B1: TPR 5TU (parent)
chain: GGAUCUUCUCGAUCUAACAAAAAAGACAAAUCUGCCACAAAGCUUGAGAGCAUCUUCGGAUGCAGAGGCGGCAGCCUUCGGUGGCGCGAUAGCGCCAACGUUCUCAACUAUGACACGCAAAACGCGUGCUCCGUUGAAUGGAGUUUAUCAUG

Variants of: B1
Experiment: polymerase ribozyme fitness, log enrichment relative to wild type (log ratio); higher = more active; in vitro selection for triplet polymerase activity
Procedure, shortened: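 After PCR construction and transcription, each subunit's mutant library from a heterodimeric triplet polymerase ribozyme was annealed with a biotinylated primer, the partner subunit and triplets. Incubation was frozen, at −7 °C, and extended constructs were gel-excised, bound to streptavidin beads and amplified by RT-PCR, in one selection round done in triplicate. Fitness is the logarithm of a genotype's enrichment divided by that of the wild type, from inverse-variance-weighted replicate averages of Illumina-sequenced inputs and outputs. The base of the logarithm is 2, and genotypes needed ≥10 input reads and ≥1 read per output.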

**Q.** With GGAUCUUCUCGAUCUAACAAACAUGACAAAUCUGCCACAAAGCUUGAGAGCAUAUUCGGAUGCAGAGGCGGCAGCCAUCGGUGUCGCGAUAGCGCCAACGUUCUCAACUAUGACACGCAAAACGCGUGCUCCGUUGAAUGGAGUUUAUCAUG [A22C A24U C54A U77A G84U] as the variant, how does the “polymerase ribozyme fitness (log ratio)” value read?
**A.** The value was ≤ -4.2.

**Q.** For GGAUCUUCUCGAUCUAACAAUAAAGACAAAUCCGCCACAAAACUGGAGAGCAACUUCGGAUGCAGAGGCGGCAGCCUUCGGUGGCGCGAAAGCGCUAACGUUCUCAACUAUGAGACGCAAAACGCGUGCUCCGUUGAAUGGAGUUUAUCAUG [A21U U33C G42A U45G U53A U90A C96U C114G], which “polymerase ribozyme fitness (log ratio)” value is on record?
**A.** The value was -3.87.

**Q.** With GGAUCUUCUCGAUCUAACAAUAAAGACAAAUCAGCCACGAAGCUUGAGAGCAUCUUCGGAUGCAGAGGCGGCAGCCUUCGGUGGCGUGAUAGCGCCAACGUUCUCAACUAUGACACGCAAAACGCGUGCUCCGUUCAAUGGAGUUUAUCAUG [A21U U33A A39G C87U G136C] as the variant, how does the “polymerase ribozyme fitness (log ratio)” value read?
**A.** Its value is ≤ -4.2.

**Q.** Which “polymerase ribozyme fitness (log ratio)” value does the source give for GGAUCUUCUCGAUCUAACAAUAAAGACAAAUCUGCCACAAAGCUUGAGAGCAUCUUCGGAUGCAGAGGCGGCAGCCUUCGGUGGCGCGAUAGCGCCAACGUUCUCAACUAUGACACGCAAAACGCGUGCUCCGUCGAAUGGAGUUUAUCAUG [A21U U135C] here?
**A.** The value was -1.61.

**Q.** With GGAUCUUCUCGAUCUAACAAACAAGACAAGUCUGCCACAAAGCUUGAGAGCAUCUUCGGGUGCAGAGACGGCAGCCUUCGGUGGAGCGAUCGCGCCAACGUUCUCAACUAUGACACGCAAAACGCAUGCUCCGUUGAAUGGAGUUUAUCAUG [A22C A30G A60G G68A C85A A91C G126A] as the variant, how does the “polymerase ribozyme fitness (log ratio)” value read?
**A.** The value was ≤ -4.2.

**Q.** For GGAUCUUCUCGAUCUAACAAACAAGACAAAUCUGCCACAAAGCUUGAGAGCAUCUUCGGAUGCAGAGGCGGCAGCCUUCGGUGGCGCGAUAGCGCCAACGUUCUCAACUAUGACACGCAAAACGCGUGCUCCGUUGAAUGGAGUUUAUCAUG [A22C], which “polymerase ribozyme fitness (log ratio)” value is on record?
**A.** The value was -0.18.

**Q.** With GGAUCUUCUCGAUCUAACAAUAAAGACAAAUCUGCCACAAAGCUUGAGAGCAUCAUCGGAUGUAGAGGCGGCAGCCUUCGGUGGUGCGAUAGCGCCAACGUUCUCAACUAUGACACGCAAAACGCGUGCUCCGUUGAAUGGAGUUUAUCAUG [A21U U55A C63U C85U] as the variant, how does the “polymerase ribozyme fitness (log ratio)” value read?
**A.** The value was 0.519.

**Q.** For GGAUCUUCUCGAUCUAACAAUAAAGACAAAUCUGCCACAAAGCUUGAGAGCAUCUACGGAUGCAGAGGCGGCAGCCUUCGGUGGCGCGAUAGCGCCAACGUUCUCAACUAUGACACGCAAAACGCGUGCUCCGUUGAAUGGAGUUUAUCAUG [A21U U56A], which “polymerase ribozyme fitness (log ratio)” value is on record?
**A.** The value was -0.173.

**Q.** With GGAUCUUCUCGAUCUAACAAACAAGACUAAUCUGCCACAAAGCUUGAGAGCAUCUUCGGAUGCAGAGGCGGCAGCCUUCGGUGGCGCUAUAGCGCCAACGUUCUCAACUAUGACACGCAAAACGCGUGCUCCGUUGAAUGGAGUUUAUCAUG [A22C A28U G88U] as the variant, how does the “polymerase ribozyme fitness (log ratio)” value read?
**A.** The value was ≤ -4.2.

**Q.** With GGAUCUUCUCGAUCUAACAAUAAAGACAAAUCUGCCACAAAGCUCGAGAGCAUCUUCGGAUGCAGAGGCGGCAGCCUUCGGUGGAGCGAUAGCGCCAACGUUCUCAACUAUGACACGCAAAACGCGUGCUCCGUUGAAUGGAGUUUAUCAUG [A21U U45C C85A] as the variant, how does the “polymerase ribozyme fitness (log ratio)” value read?
**A.** The value was -3.36.

**Q.** Which “polymerase ribozyme fitness (log ratio)” value does the source give for GGAUCUUCUCGAUCUAACAAUAAAGACAAAUCUGCCACAAAGCUUGAGAGCAUCAACGGAUGCAGAGGCGUCAGCCUUCGGUGGCGCGAUAGCGCCAACGUUCUCAACUAUGACACGCAAAACGCGUGCUCCGUUGAAUGGAGUUUAUCAUG [A21U U55A U56A G71U] here?
**A.** Its value is -1.72.

**Q.** With GGAUCUUCUCGAUCUAACAAACAAGACGAAUCUGCCACAAAGCUUGACAGCAUCUUCGGAUACCGAGGCGGCAGCCUUCGGUGGUGCGAUAGCGCCAACGUUCUCAACUAUGACACGCAAAACGCGUGCUCCGUUGAAUGGAGUUUAUCAUG [A22C A28G G48C G62A A64C C85U] as the variant, how does the “polymerase ribozyme fitness (log ratio)” value read?
**A.** The value was ≤ -4.2.

**Q.** With GGAUCUUCUCGAUCUAACAAUAAAGACAAAUCGGCCACAAAGCUUGAGAGCAUCUUCGCAUGCAGAGGCGGGAGCCUUCGGUGGCGCGCUAGCGCAAACGUUCUCAACUAUGACCCGCAAAACGCGUGCUCCGUUGAAUGGAGUUCAUCAUG [A21U U33G G59C C72G A89C C96A A115C U146C] as the variant, how does the “polymerase ribozyme fitness (log ratio)” value read?
**A.** The value was ≤ -4.2.

**Q.** With GGAUCUUCUCGAUCUAACAAUAAAGACAAAUCGGCCACAAAGCUUGAGAGCAUCUUCGGACACAGCGGCGGAAGCCUUCCGUGGUGCGAUAGCGCCAACGUUCUCAGCUAUGACACGCAAAACGCGUGCUCCGUUGAAUGGAGUUUAUCAUG [A21U U33G U61C G62A A66C C72A G80C C85U A107G] as the variant, how does the “polymerase ribozyme fitness (log ratio)” value read?
**A.** The value was ≤ -4.2.

**Q.** Which “polymerase ribozyme fitness (log ratio)” value does the source give for GGAUCUUCUCGAUCUAACAAUAAAGACAAAUCUGCCACAAAGCUUGAGAGCAUCUUCGGAUGCAGAGGCGGCAGCCUUCGGUGGCGCGAUAGCGCCAACGCUCUCAACUAUGACACGCAAAACGCGUGCUCCGUUGAAUGGAGUUUAUCAUG [A21U U101C] here?
**A.** The value was 0.366.

**Q.** Which “polymerase ribozyme fitness (log ratio)” value does the source give for GGAUCUUCUCGAUCUAACAAUAAAGACAAAUCUGCCACAAAGCUUGAGAGCAUCUUCGGAUGCAGAGGCGGCAGCCUUCGGUGGCGCGAUACCGCCAACGUUCUCAACUAUGACACGCAAAACGCGUGCUCCGUUGAAUGGAGUUUAUCAUG [A21U G92C] here?
**A.** The value was 0.0736.

**Q.** Which “polymerase ribozyme fitness (log ratio)” value does the source give for GGAUCUUCUCGAUCUAACAAACAAGUCAAAUCUGCUACAAAGCUUGAGAGCAUUUUCGGAUGCAGAGGCGGCAGCCUUCGGUGGUGCGAUAGCGCCAUCGUUCUCGACUAUGACACGCAAAACGCGUGCUCCGUUGAAUGGAGUUUAUCAUG [A22C A26U C36U C54U C85U A98U A106G] here?
**A.** The value was ≤ -4.2.

**Q.** Which “polymerase ribozyme fitness (log ratio)” value does the source give for GGAUCUUCUCGAUCUAACAAUAAAGACAAAUCUGCCACAAAGCUUGAGAGCAACUUCGGAUGCAGAGGCGGCCGCAUUCGGUGGCGCAAUAGCGCCAACGUUCUCAACUAUGAUACGCAAAACGCGUGCUCCGAUGAAUGGAGUUUAUCAUG [A21U U53A A73C C76A G88A C114U U134A] here?
**A.** The value was ≤ -4.2.

**Q.** Which “polymerase ribozyme fitness (log ratio)” value does the source give for GGAUCUUCUCGAUCUAACAAUAAAGACAAAUCUGCCACAAAGCGUGAGAGCAUCUUCGGAUGCAGAGGCGGCAGCCUUCGGUGGCGCGAUAGCGCCAACGUUCUCAACUAUGACACGCAAAACGCGUGCUUCGUUCAAUGUAGUUUAUCAAG [A21U U44G C131U G136C G141U U151A] here?
**A.** Its value is ≤ -4.2.
